Laboratory results from patent US11015206B2, “Compositions and methods comprising sequences having hydroxyphenylpyruvate dioxygenase (HPPD) activity” (PIONEER HI-BRED INTERNATIONAL, INC., priority 2014, dated 2021).

Tests used:
Format in all cases: biochemical, Z. mays
[1] = system: 4-hydroxyphenylpyruvate dioxygenase (HPPD); assay: HPPD activity coupled assay with HGD; substrate saturation kinetic parameters (kcat, KM)
Protocol: Wild type and shuffled variant genes were cloned into pVER7062, a modified version of pET24a(+)(Novagen), which places six histidine residues at the N-terminus of the expressed protein. Vectors were electroporated into E. coli host strain BL21(DE3). Cells were grown at 30 C in rich medium such as 2×YT containing the selection antibiotic, kanamycin. At a density of about 0.6 OD600, IPTG was added to 0.2 mM, the temperature was reduced to 16 C and growth continued for another 24 hrs. Cells were harvested by centrifugation and stored at −80 C. Cell pellets were lysed in BPER (Pierce) protein extraction reagent containing 0.2 mg/ml lysozyme, 1 mM dithiothreitol, protease inhibitor cocktail (Sigma, bacterial cocktail) and endonuclease. Insoluble cellular debris was removed by centrifugation. HPPD protein was purified from the soluble protein solution by affinity chromatography on the nickel form of nitrilotriacetic acid (Ni-NTA) resin (Qiagen). Protein concentrations were determined by the Bradford method, as supplied by Bio-Rad.
HPPD catalyzes the conversion of 4-hydroxyphenylpyruvate (HPP) to homogentisate (FIG. 17). […] However, the product of the ensuing reaction in tyrosine metabolism, maleylacetoacetate, absorbs strongly at 320 nm. Furthermore, the enzyme catalyzing that reaction is also a dioxygenase having similar mechanism and buffer requirements as HPPD, making homogentisate dioxygenase (HGD) an ideal partner in a coupled assay, as shown.
The HDG gene from Pseudomonas aeruginosa (Amaya (2004) Arch Biochem Biophys 421, 135-142) was cloned into pVER7062 and electroporated into E. coli strain BL21(DE3). The enzyme was produced by methods similar to those described for HPPD. The purified enzyme has a KM for homogentisate of 23 μM and a kcat of 100/sec, properties highly suited for instantly converting the homogentisate produced by HPPD to maleylacetoacetate.
HPPD activity was measured by placing an aliquot (e.g., 6 μl) of the substrate HPP at 50-fold the desired final concentration into the wells of a low UV-absorbing assay plate. Reactions were started by adding a mixture (e.g., 294 μl) containing 25 mM Hepes, pH 7, 2 mM ascorbate, 10 μM FeSO4, 1 to 100 μM HPP, 50 nM HGD and 5 to 240 nM HPPD. Absorbance at 320 nm was monitored continuously in a plate-reading spectrophotometer (Spectramax, Molecular Devices).
The catalytic performance of wild-type HPPD and variants generated by shuffling was assessed by determining the substrate saturation kinetic parameters. The Michaelis-Menten kinetics protocol of the Spectramax software was customized for HPP concentrations ranging from 3.33 μM to 100 μM. Reaction rates were measured as described above for each concentration of HPP. The software returns values of KM and Vmax using the Lineweaver-Burke transformation of the Michaelis-Menten equation.

[2] = system: 4-hydroxyphenylpyruvate dioxygenase (HPPD); assay: OFF rate ratio: release of inhibitor from pre-formed enzyme-inhibitor complex
Method in brief: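 HPPD (7.2 μM) pre-incubated 1 h at RT with inhibitor (8 μM), then diluted into 25 mM Hepes pH 7, 2 mM ascorbate, 10 μM FeSO4, 100 μM HPP, 50 nM HGD; A320 followed 12 min. Ratio = steady-state rate with inhibitor over initial rate of inhibitor-free enzyme.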

[3] = system: 4-hydroxyphenylpyruvate dioxygenase (HPPD); assay: Estimate of kcat from initial rate at saturating hydroxyphenylpyruvate without inhibitor (ON rate ratio assay); settings: Table 5; single substitutions in Round 7 variant 9070 (SEQ ID NO:2); estimate from initial rate at saturating hydroxyphenylpyruvate without inhibitor
Method in brief: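 Reactions used 60 or 120 nM HPPD and saturating 100 μM hydroxyphenylpyruvate without inhibitor. kcat was estimated from the initial rate at the known enzyme concentration.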

[4] = system: 4-hydroxyphenylpyruvate dioxygenase (HPPD); assay: ON rate ratio: HPPD reaction rate with vs without inhibitor in the 70 to 90 second interval; settings: for ON rate ratio: mesotrione
Method in brief: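 Time courses of HPPD reactions, 60 or 120 nM enzyme with 100 μM HPP substrate, run with and without 4 μM inhibitor (e.g. mesotrione, tembotrione). Value is the rate with inhibitor over rate without, taken over 70–90 s; higher ratio reflects slower kON.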

[5] = system: 4-hydroxyphenylpyruvate dioxygenase (HPPD); assay: Insensitivity parameter (ON × OFF) and trait fitness (ON × OFF × kcat/KM or × kcat); settings: for Insensitivity ON × OFF, Fold vs wt: vs maize wild type
Method in brief: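 Calculated, not measured directly: ON rate ratio × OFF rate ratio gives an insensitivity parameter serving as a KD surrogate.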

[6] = Table 5, tembotrione, fold vs maize wild type HPPD
[7] = Table 2, E. coli purified proteins

ON rate ratio [4] | Fitness Fold vs Zm wt ([5]; mesotrione) | Insensitivity parameter, ON × OFF ([5]; mesotrione, Table 2) | Insensitivity ON × OFF, Fold vs wt ([5]; mesotrione) | OFF rate ratio ([2]; mesotrione) | Molecule | Km [1, 7] | kcat [1, 7] | also measured
– | – | – | – | – | SEQ ID NO:78: improved shuffled variant of maize HPPD (protein, Zea mays variant form created by artificial means.) MGPTPTATAAGAAVAAASAAEQAAFRLVGHRNFVRFNPRSDRFHTLAFHHVELWCADAASAAGRFSFALGAPLAARSDLSTGNSAHASLLLRSGSLSFLFTAPYAHGADAATAALPSFSAAAARRFAADHGLAVRAVALRVADAEDAFRASVAAGARPAFGPVDLGRGFRLAEVELYGDVVLRYVSYPDGAAGEPFLPGFEGVASPGAADYGLSRFDHIVGNVPELAPAAAYFAGFTGFHEFAEFTTEDVGTAESGLNSMALANNSENVLLPLNEPVHGTKRRSQIQTFLDHHGGPGVQHIALASDDVLRTLREMQARSAMGGFEFLPPPPSDYYDGVRRCAGDVLTEAQINECQELGVMVDRDDQGVLLQIFTKPVGDRPTFFLEIIQRIGCMEKDEKGQEYQKGGCGGFGKGNFGQLFKSIEDYEKSLEAKQAAAAATAQGS | – | – | kcat ([1]; text b374): about 220 min^−1; time span to reach the steady state (dissociation from inhibitor) ([2]; mesotrione, enzyme 240 nM): 80 s
– | – | – | – | – | 206Q: single substitution P206Q in SEQ ID NO:2 (protein, Zea mays variant form created by artificial means.) MGPTPTATAAGAAVAAASAAEQAAFRLVGHRNFVRFNPRSDRFQTLAFHHVELWCADAASAAGRFSFALGVPLAARSDLSTGNSAHASLLLRSGSLSLLFTAPYAHGADAATAALPSFSAAAARRFAADHGLAVRAVALRVADAEDAFRASVAAGARPAFGPVDLGRGFRLAEVELYGDVVLRYVSYPDGAAGEPFLPGFEGVASQGAADYGLSRFDHIVGNVPELAPAAAYMAGFTGFHEFAEFTTEDVGTTESGLNSMALANNSENVLLPLNEPVHGTKRRSQIQTFLDHHGGPGVQHIALASDDVLRTLREMRARSAMGGFEFLPPPLSDYYDGVRRCAGDVLTEAQINECQELGVMVDRDDQGVLLQIFTKPVGDRPTFFLEIIQRIGCMEKDEKGQEYQKGGCGGFGKGNFGQLFKSIEDYEKSLEAKQAAAAATAQGS | – | – | kcat [3]: 0.59 s⁻¹; ON ratio (parameters with tembotrione) ([4]; Table 5, tembotrione): 0.74; Km ([1]; Table 6): 2.63 µM; kcat ([1]; Table 6, single substitutions in SEQ ID NO:2): 1.11 s⁻¹; Insensitivity parameter, ON × OFF ([5]; DKN (diketonitrile form of isoxaflutole)): 0.26; ON × OFF × kcat/km fold vs Round 7, variant 9070 ([5]; DKN (isoxaflutole diketonitrile)): 1.2; Insensitivity parameter, ON × OFF ([5]; Mesotrione, Table 6): 0.46; ON × OFF × kcat/km fold vs Round 7, variant 9070 ([5]; Sulco (sulcotrione)): 1.0; Insensitivity parameter, ON × OFF ([5]; Sulcotrione): 0.53; ON × OFF × kcat, Value ([5]; Table 5, tembotrione): 5.57; ON × OFF × kcat, Fold vs wt [5, 6]: 5.20; ON × OFF, fold vs wt [5, 6]: 30.8; ON × OFF (parameters with tembotrione) ([5]; Table 5, tembotrione, insensitivity parameter): 0.16; Insensitivity parameter, ON × OFF ([5]; Tembotrione): 0.19; ON × OFF × kcat/km fold vs Round 7, variant 9070 ([5]; Topra (topramezone)): 1.1; Insensitivity parameter, ON × OFF ([5]; Topramezon): 0.27; ON × OFF × kcat/km fold vs Round 7, variant 9070 ([5]; meso (mesotrione)): 1.1; ON × OFF × kcat/km fold vs Round 7, variant 9070 ([5]; tembo (tembotrione)): 1.4; OFF ratio (parameters with tembotrione) ([2]; Table 5, tembotrione): 0.21
0.68 | 6.4 | 0.46 | 7.6 | 0.68 | R6-9075: shuffled maize HPPD variant 9075, SEQ ID NO:79; 9070 with R316 changed to Q (protein, Zea mays variant form created by artificial means., 9070 with R316 changed to Q) MGPTPTATAAGAAVAAASAAEQAAFRLVGHRNFVRFNPRSDRFQTLAFHHVELWCADAASAAGRFSFALGVPLAARSDLSTGNSAHASLLLRSGSLSLLFTAPYAHGADAATAALPSFSAAAARRFAADHGLAVRAVALRVADAEDAFRASVAAGARPAFGPVDLGRGFRLAEVELYGDVVLRYVSYPDGAAGEPFLPGFEGVASPGAADYGLSRFDHIVGNVPELAPAAAYMAGFTGFHEFAEFTTEDVGTTESGLNSMALANNSENVLLPLNEPVHGTKRRSQIQTFLDHHGGPGVQHIALASDDVLRTLREMQARSAMGGFEFLPPPLSDYYDGVRRCAGDVLTEAQINECQELGVMVDRDDQGVLLQIFTKPVGDRPTFFLEIIQRIGCMEKDEKGQEYQKGGCGGFGKGNFGQLFKSIEDYEKSLEAKQAAAAATAQGS | 4 µM | 1.9 s⁻¹ | –
0.20 | 0.02 | 0.0014 | 0.023 | 0.007 | G. max wt: wild-type HPPD enzyme from soybean (protein, Glycine max, wild-type HPPD enzyme from soybean) MPMYTPSLSAPSSNHIQPSVTLPLYITTTKLNLKQQHHTTPMPIPMCNEIQAQAQAQAQPGFKLVGFKNFVRTNPKSDRFQVNRFHHIEFWCTDATNASRRFSWGLGMPIVAKSDLSTGNQIHASYLLRSGDLSFLFSAPYSPSLSAGSSAASSASIPSFDAATCLAFAAKHGFGVRAIALEVADAEAAFSASVAKGAEPASPPVLVDDRTGFAEVRLYGDVVLRYVSYKDAAPQAPHADPSRWFLPGFEAAASSSSFPELDYGIRRLDHAVGNVPELAPAVRYLKGFSGFHEFAEFTAEDVGTSESGLNSVVLANNSETVLLPLNEPVYGTKRKSQIETYLEHNEGAGVQHLALVTHDIFTTLREMRKRSFLGGFEFMPSPPPTYYANLHNRAADVLTVDQIKQCEELGILVDRDDQGTLLQIFTKPVGDRPTIFIEIIQRIGCMVEDEEGKVYQKGACGGFGKGNFSELFKSIEEYEKTLEAKRTA | 3 µM | 1.67 s⁻¹ | –
0.73 | 12.2 | 0.73 | 11.9 | 1.00 | R8-1973: Round 8, variant 1973 (SEQ ID NO:8), 26 amino acid substitutions relative to native maize HPPD (protein, Zea mays variant form created by artificial means.) MGPTPTATAAGAAVAAASAAEQAAFRLVGHRNFVRFNPRSDRFQTLAFHHVELWCADAASAAGRFSFALGVPLAARSDLSTGNSAHASLLLRSGSLSLLFTAPYAHGADAATAALPSFSAAAARRFAADHGLAVRAVALRVADAEDAFRASVAAGARPAFGPVDLGRGFRLAEVELYGDVVLRYVSYPDGAAGEPFLPGFEGVASPGAADLGLNRFDHIVGNVPELAPAAAYMAGFTGFHEFAEFTTEDVGTTESGLNSMALANNSENVLLPLNEPVHGTKRRSQIQTFLDHHGGPGVQHIALASDDVLRTLREMRARSAMGGFEFLPPPLSDYYDGVRKCAGDVLTEAQINECQELGVMVDRDDEGVLLQIFTKPVGDRPTFFLEIIQRIGCREKDEKGQEYQKGGCGGFGKGNFGQLFKSIEDYEKSLEKKRAAAAATAQGS | 2 µM | 1.18 s⁻¹ | –
